Key:
[1] = target: T1, hIL-18 receptor (hIL-18Rα and hIL-18Rβ) (human, UniProt Q13478 19-541; O95256 20-599); test: cell-based or functional assay
T1 sequence (looked up) 1: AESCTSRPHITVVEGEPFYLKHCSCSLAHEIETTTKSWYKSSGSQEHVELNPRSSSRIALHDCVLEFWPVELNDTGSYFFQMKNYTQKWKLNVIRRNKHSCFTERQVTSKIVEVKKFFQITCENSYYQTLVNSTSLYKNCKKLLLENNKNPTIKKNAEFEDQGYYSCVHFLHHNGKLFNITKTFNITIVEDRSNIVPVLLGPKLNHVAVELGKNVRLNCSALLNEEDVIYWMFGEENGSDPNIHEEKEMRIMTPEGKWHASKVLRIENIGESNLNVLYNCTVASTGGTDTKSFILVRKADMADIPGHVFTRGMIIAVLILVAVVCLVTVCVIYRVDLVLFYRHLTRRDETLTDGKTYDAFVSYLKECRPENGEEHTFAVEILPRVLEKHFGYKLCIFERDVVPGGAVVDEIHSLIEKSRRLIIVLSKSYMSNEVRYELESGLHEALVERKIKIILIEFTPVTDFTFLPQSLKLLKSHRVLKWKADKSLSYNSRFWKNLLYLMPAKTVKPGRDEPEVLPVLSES
T1 sequence (looked up) 2: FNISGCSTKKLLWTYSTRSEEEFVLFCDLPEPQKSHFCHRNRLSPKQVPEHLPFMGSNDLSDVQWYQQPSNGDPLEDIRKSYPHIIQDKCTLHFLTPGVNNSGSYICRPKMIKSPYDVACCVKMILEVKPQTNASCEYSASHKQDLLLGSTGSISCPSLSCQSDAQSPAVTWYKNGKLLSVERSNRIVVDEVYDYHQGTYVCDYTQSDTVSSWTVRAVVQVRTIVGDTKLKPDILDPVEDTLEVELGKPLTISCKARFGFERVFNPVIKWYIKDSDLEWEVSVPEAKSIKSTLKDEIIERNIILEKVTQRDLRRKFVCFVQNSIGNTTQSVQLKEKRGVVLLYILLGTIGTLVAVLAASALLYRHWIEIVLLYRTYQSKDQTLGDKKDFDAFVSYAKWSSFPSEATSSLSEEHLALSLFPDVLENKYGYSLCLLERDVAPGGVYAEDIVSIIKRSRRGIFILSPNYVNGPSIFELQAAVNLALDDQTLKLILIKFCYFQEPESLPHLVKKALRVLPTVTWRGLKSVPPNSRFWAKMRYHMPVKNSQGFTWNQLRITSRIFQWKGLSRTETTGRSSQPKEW

hIL-18BP-hFc = target: T2, hIL-18BP-hFc (human, UniProt O95998 31-194, limits assumed); test: cell-based or functional assay
T2 sequence (looked up): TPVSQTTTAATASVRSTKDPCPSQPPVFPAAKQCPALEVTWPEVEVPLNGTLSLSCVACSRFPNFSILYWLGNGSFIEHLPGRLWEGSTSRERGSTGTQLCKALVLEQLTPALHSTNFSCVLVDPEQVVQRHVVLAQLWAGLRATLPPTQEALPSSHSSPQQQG

B1: IL-18 variant polypeptide M2 (ligand)
chain: YFSKLKSKLSVIRNLNDQVLFIDQGNRPLFEDMTDSDCRDNAPRTIFIISMYKWSPDRGMAVTISVKCEKISTLSCENKIISFKEMNPPDGIKDTKSDIIFFQTSVPGHDNKMQFESSSYEGYFLACEKERDLFKLILKKEDELGDRSIMFTVQNED
[1]
  EC50 (nM), hIL-18 reporter assay: 0.27 nM
hIL-18BP-hFc
  EC50 (nM) in the Presence of 1 µg/mL hIL-18BP-hFc, hIL-18 reporter assay: 0.19 nM
  EC50 Fold Change (+BP/-BP), hIL-18 reporter assay: 0.7 fold

B2: IL-18 variant polypeptide M6 (ligand)
chain: YFPKLRSKLSVIRNLNDQVLFIDQGNRPLFEDMTDSDCRDNAPRTIFIISMYKWSTPRGMAVTISVKCEKISTLSCENKIISFKEMNPPDVIKDTKSDIIFFQTSVPGHDNKMQFESSSYEGYFLACEKERDLFKLILKKEDELGDRSIMFTVQNED
[1]
  EC50 (nM), hIL-18 reporter assay: 0.18 nM
hIL-18BP-hFc
  EC50 (nM) in the Presence of 1 µg/mL hIL-18BP-hFc, hIL-18 reporter assay: 0.14 nM
  EC50 Fold Change (+BP/-BP), hIL-18 reporter assay: 0.78 fold

B3: IL-18 variant polypeptide M16 (ligand)
chain: YFPKLRSKLSVIRNLNDQVLFIDQGNRPLFEDMTDSDCRDNAPRTIFIISMYKSSRNRGMAVTISVKCEKISTLSCENKIISFKEMNPPDGIKDTKSDIIFFQSSVPGHDNKMQFESSSYEGYFLACEKERDLFKLILKKEDELGDRSIMFTVQNED
[1]
  EC50 (nM), hIL-18 reporter assay: 0.29 nM
hIL-18BP-hFc
  EC50 (nM) in the Presence of 1 µg/mL hIL-18BP-hFc, hIL-18 reporter assay: 0.34 nM
  EC50 Fold Change (+BP/-BP), hIL-18 reporter assay: 1.17 fold

B4: IL-18 variant polypeptide M9 (ligand)
chain: YFPKLRSKLSVIRNLNDQVLFIDQGNRPLFEDMTDSDCRDNAPRTIFIISMYKWSRARGMAVTISVKCEKISTLSCENKIISFKEMNPPDSIKDTKSDIIFFQSSVPGHDNKMQFESSSYEGYFLACEKERDLFKLILKKEDELGDRSIMFTVQNED
[1]
  EC50 (nM), hIL-18 reporter assay: 0.43 nM
hIL-18BP-hFc
  EC50 (nM) in the Presence of 1 µg/mL hIL-18BP-hFc, hIL-18 reporter assay: 0.33 nM
  EC50 Fold Change (+BP/-BP), hIL-18 reporter assay: 0.77 fold

B5: IL-18 variant polypeptide M26 (ligand)
chain: YFPKLRSKLSVIRNLNDQVLFIDQGNRPLFEDMTDSDCRDNAPRTIFIISMYKHSDKRGMAVTISVKCEKISTLSCENKIISFKEMNPPDVIKDTKSDIIFFQYSVPGHDNKMQFESSSYEGYFLACEKERDLFKLILKKEDELGDRSIMFTVQNED
[1]
  EC50 (nM), hIL-18 reporter assay: 0.068 nM
hIL-18BP-hFc
  EC50 (nM) in the Presence of 1 µg/mL hIL-18BP-hFc, hIL-18 reporter assay: 0.094 nM
  EC50 Fold Change (+BP/-BP), hIL-18 reporter assay: 1.38 fold

B6: IL-18 variant polypeptide M19 (ligand)
chain: YFPKLKSKLSVIRNLNDQVLFIDQGNRPLFEDMTDSDCRDNAPRTIFIISMYKHSEQRGMAVTISVKCEKISTLSCENKIISFKEMNPPDAIKDTKSDIIFFQRSVPGHDNKMQFESSSYEGYFLACEKERDLFKLILKKEDELGDRSIMFTVQNED
[1]
  EC50 (nM), hIL-18 reporter assay: 0.66 nM
hIL-18BP-hFc
  EC50 (nM) in the Presence of 1 µg/mL hIL-18BP-hFc, hIL-18 reporter assay: 0.31 nM
  EC50 Fold Change (+BP/-BP), hIL-18 reporter assay: 0.47 fold

B7: IL-18 variant polypeptide M7 (ligand)
chain: YFPKLRSKLSVIRNLNDQVLFIDQGNRPLFEDMTDSDCRDNAPRTIFIISMYKHSTARGMAVTISVKCEKISTLSCENKIISFKEMNPPDAIKDTKSDIIFFQRSVPGHDNKMQFESSSYEGYFLACEKERDLFKLILKKEDELGDRSIMFTVQNED
[1]
  EC50 (nM), hIL-18 reporter assay: 0.15 nM
hIL-18BP-hFc
  EC50 (nM) in the Presence of 1 µg/mL hIL-18BP-hFc, hIL-18 reporter assay: 0.25 nM
  EC50 Fold Change (+BP/-BP), hIL-18 reporter assay: 1.67 fold

B8: IL-18 variant polypeptide M25 (ligand)
chain: YFPKLRSKLSVIRNLNDQVLFIDQGNRPLFEDMTDSDCRDNAPRTIFIISMYKLSTTRGMAVTISVKCEKISTLSCENKIISFKEMNPPDRIKDTKSDIIFFQRSVPGHDNKMQFESSSYEGYFLACEKERDLFKLILKKEDELGDRSIMFTVQNED
[1]
  EC50 (nM), hIL-18 reporter assay: 0.58 nM
hIL-18BP-hFc
  EC50 (nM) in the Presence of 1 µg/mL hIL-18BP-hFc, hIL-18 reporter assay: 1.15 nM
  EC50 Fold Change (+BP/-BP), hIL-18 reporter assay: 1.98 fold

B9: IL-18 variant polypeptide M23 (ligand)
chain: YFPKLRSKLSVIRNLNDQVLFIDQGNRPLFEDMTDSDCRDNAPRTIFIISMYKYSTRRGMAVTISVKCEKISTLSCENKIISFKEMNPPDNIKDTKSDIIFFQRSVPGHDNKMQFESSSYEGYFLACEKERDLFKLILKKEDELGDRSIMFTVQNED
[1]
  EC50 (nM), hIL-18 reporter assay: 0.8 nM
hIL-18BP-hFc
  EC50 (nM) in the Presence of 1 µg/mL hIL-18BP-hFc, hIL-18 reporter assay: 1.4 nM
  EC50 Fold Change (+BP/-BP), hIL-18 reporter assay: 1.75 fold

B10: IL-18 variant polypeptide M22 (ligand)
chain: YFPKLRSKLSVIRNLNDQVLFIDQGNRPLFEDMTDSDCRDNAPRTIFIISMYKYSRGRGMAVTISVKCEKISTLSCENKIISFKEMNPPDKIKDTKSDIIFFQSSVPGHDNKMQFESSSYEGYFLACEKERDLFKLILKKEDELGDRSIMFTVQNED
[1]
  EC50 (nM), hIL-18 reporter assay: 7.2 nM
hIL-18BP-hFc
  EC50 (nM) in the Presence of 1 µg/mL hIL-18BP-hFc, hIL-18 reporter assay: 7.5 nM
  EC50 Fold Change (+BP/-BP), hIL-18 reporter assay: 1.04 fold

B11: IL-18 variant polypeptide M18 (ligand)
chain: YFPKLRSKLSVIRNLNDQVLFIDQGNRPLFEDMTDSDCRDNAPRTIFIISMYKSSRRRGMAVTISVKCEKISTLSCENKIISFKEMNPPDGIKDTKSDIIFFQSSVPGHDNKMQFESSSYEGYFLACEKERDLFKLILKKEDELGDRSIMFTVQNED
[1]
  EC50 (nM), hIL-18 reporter assay: 0.58 nM
hIL-18BP-hFc
  EC50 (nM) in the Presence of 1 µg/mL hIL-18BP-hFc, hIL-18 reporter assay: 0.56 nM
  EC50 Fold Change (+BP/-BP), hIL-18 reporter assay: 0.97 fold

B12: IL-18 variant polypeptide M4 (ligand)
chain: YFPKLKSKLSVIRNLNDQVLFIDQGNRPLFEDMTDSDCRDNAPRTIFIISMYKWSGVRGMAVTISVKCEKISTLSCENKIISFKEMNPPDVIKDTKSDIIFFQFSVPGHDNKMQFESSSYEGYFLACEKERDLFKLILKKEDELGDRSIMFTVQNED
[1]
  EC50 (nM), hIL-18 reporter assay: 0.018 nM
hIL-18BP-hFc
  EC50 (nM) in the Presence of 1 µg/mL hIL-18BP-hFc, hIL-18 reporter assay: 0.025 nM
  EC50 Fold Change (+BP/-BP), hIL-18 reporter assay: 1.39 fold

B13: IL-18 variant polypeptide M3 (ligand)
chain: YFPKLKSKLSVIRNLNDQVLFIDQGNRPLFEDMTDSDCRDNAPRTIFIISMYKWSHVRGMAVTISVKCEKISTLSCENKIISFKEMNPPDAIKDTKSDIIFFQYSVPGHDNKMQFESSSYEGYFLACEKERDLFKLILKKEDELGDRSIMFTVQNED
[1]
  EC50 (nM), hIL-18 reporter assay: 0.24 nM
hIL-18BP-hFc
  EC50 (nM) in the Presence of 1 µg/mL hIL-18BP-hFc, hIL-18 reporter assay: 0.37 nM
  EC50 Fold Change (+BP/-BP), hIL-18 reporter assay: 1.54 fold

B14: IL-18 variant polypeptide M20 (ligand)
chain: YFPKLRSKLSVIRNLNDQVLFIDQGNRPLFEDMTDSDCRDNAPRTIFIISMYKSSRSRGMAVTISVKCEKISTLSCENKIISFKEMNPPDGIKDTKSDIIFFQSSVPGHDNKMQFESSSYEGYFLACEKERDLFKLILKKEDELGDRSIMFTVQNED
[1]
  EC50 (nM), hIL-18 reporter assay: 2.2 nM
hIL-18BP-hFc
  EC50 (nM) in the Presence of 1 µg/mL hIL-18BP-hFc, hIL-18 reporter assay: 0.5 nM
  EC50 Fold Change (+BP/-BP), hIL-18 reporter assay: 0.23 fold

B15: IL-18 variant polypeptide M10 (ligand)
chain: YFPKLRSKLSVIRNLNDQVLFIDQGNRPLFEDMTDSDCRDNAPRTIFIISMYKQSLWRGMAVTISVKCEKISTLSCENKIISFKEMNPPDSIKDTKSDIIFFQRSVPGHDNKMQFESSSYEGYFLACEKERDLFKLILKKEDELGDRSIMFTVQNED
[1]
  EC50 (nM), hIL-18 reporter assay: 0.29 nM
hIL-18BP-hFc
  EC50 (nM) in the Presence of 1 µg/mL hIL-18BP-hFc, hIL-18 reporter assay: 0.17 nM
  EC50 Fold Change (+BP/-BP), hIL-18 reporter assay: 0.59 fold

B16: IL-18 variant polypeptide M14 (ligand)
chain: YFNKLKSKLSVIRNLNDQVLFIDQGNRPLFEDMTDSDCRDNAPRTIFIISMYKPSSSRGMAVTISVKCEKISTLSCENKIISFKEMNPPDRIKDTKSDIIFFQASVPGHDNKMQFESSSYEGYFLACEKERDLFKLILKKEDELGDRSIMFTVQNED
[1]
  EC50 (nM), hIL-18 reporter assay: 0.04 nM
hIL-18BP-hFc
  EC50 (nM) in the Presence of 1 µg/mL hIL-18BP-hFc, hIL-18 reporter assay: 0.03 nM
  EC50 Fold Change (+BP/-BP), hIL-18 reporter assay: 0.75 fold

B17: IL-18 variant polypeptide M5 (ligand)
chain: YFEKLTSKLSVIRNLNDQVLFIDQGNRPLFEDMTDSDCRDNAPRTIFIISMYKWSPWRGMAVTISVKCEKISTLSCENKIISFKEMNPPDVIKDTKSDIIFFQTSVPGHDNKMQFESSSYEGYFLACEKERDLFKLILKKEDELGDRSIMFTVQKED
[1]
  EC50 (nM), hIL-18 reporter assay: 0.22 nM
hIL-18BP-hFc
  EC50 (nM) in the Presence of 1 µg/mL hIL-18BP-hFc, hIL-18 reporter assay: 0.21 nM
  EC50 Fold Change (+BP/-BP), hIL-18 reporter assay: 0.95 fold

From patent US20260092093A1 (TJ BIOPHARMA SHANGHAI, published 2026)
